Legend:
[1] = target: T1, alpha-thrombin (Homo sapiens, UniProt P00734;P00734 328-363;364-622); assay: ELISA-based binding with competition; 100-fold excess unlabeled competitor as control; 20 mM Tris pH 7.5, 150 mM NaCl, 0.1% BSA, 0.1% Tween 20, 100 ug/mL sheared salmon sperm DNA, 1 h, room temperature; thrombin coated at 250 nM
[2] = target: T1, alpha-thrombin; assay: competition; 100-fold excess over biotinylated AYA1809007; 20 mM Tris pH 7.5, 150 mM NaCl, 0.1% BSA, 0.1% Tween 20, 100 ug/mL sheared salmon sperm DNA, 1 h, room temperature; thrombin coated at 250 nM
[3] = target: T1, alpha-thrombin; assay: ELISA; 20 mM Tris pH 7.5, 150 mM NaCl, 0.1% BSA, 0.1% Tween 20, 100 ug/mL sheared salmon sperm DNA, 1 h, room temperature; thrombin coated at 250 nM

| Binder | Kd [1] | further results |
| --- | --- | --- |
| GCGGTGTTGCTGGGGTTGGGAGGTTGGAGGAAGCAATCGC (structured_DNA) [AYA1809002] | 10 nM | – |
| TCGTCAAGGTACGGTTGGGGGGGTGGGTGTTGACGTTGAA (structured_DNA) [AYA1809004] | 13 nM | – |
| AGGGGCTCTAGGGTGGGTAGGATGGTGAGACCGCAGCGT (structured_DNA) [AYA1809007 unlabeled] | – | binding result [2]: binds |
| AGGGGCTCTAGGGTGGGTAGGATGGTGAGACCGCAGCGT (structured_DNA) [AYA1809007] | – | binding result [3]: binds |

Reference: paper PMC10526462
